Data from US20160274110A1 (Novartis, published 2016).

Key:
[1] = target: T1, human GPR15 (human, UniProt P49685 1-360); experiment: cell-based or functional assay
T1 sequence (looked up): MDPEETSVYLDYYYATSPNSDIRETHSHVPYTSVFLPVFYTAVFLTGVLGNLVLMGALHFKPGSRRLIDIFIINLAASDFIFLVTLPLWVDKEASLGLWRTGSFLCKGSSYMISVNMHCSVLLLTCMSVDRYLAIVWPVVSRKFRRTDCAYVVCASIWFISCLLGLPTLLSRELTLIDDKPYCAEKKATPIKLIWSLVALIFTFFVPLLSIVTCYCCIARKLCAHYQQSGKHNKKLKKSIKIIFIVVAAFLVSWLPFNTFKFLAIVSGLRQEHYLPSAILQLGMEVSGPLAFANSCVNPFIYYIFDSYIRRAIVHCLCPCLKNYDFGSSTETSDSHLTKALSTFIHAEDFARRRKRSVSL

[2] = target: T2, mouse GPR15 (mouse, UniProt Q0VDU3 1-360); experiment: cell-based or functional assay
T2 sequence (looked up): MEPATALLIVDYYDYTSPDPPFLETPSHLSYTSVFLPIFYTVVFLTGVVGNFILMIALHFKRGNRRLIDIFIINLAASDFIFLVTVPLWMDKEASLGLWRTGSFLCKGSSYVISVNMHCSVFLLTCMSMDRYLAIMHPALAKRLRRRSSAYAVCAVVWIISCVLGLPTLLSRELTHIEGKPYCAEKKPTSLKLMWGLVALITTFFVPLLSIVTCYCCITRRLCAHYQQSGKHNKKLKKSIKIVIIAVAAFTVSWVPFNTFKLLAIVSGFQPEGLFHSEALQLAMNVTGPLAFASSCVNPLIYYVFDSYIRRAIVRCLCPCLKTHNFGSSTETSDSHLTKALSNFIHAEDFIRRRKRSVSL

B1: c10orf99 1-57, synthetic peptide KRRPAKAWSGRRTRLCCHRVPSPNSTNLKGHHVRLCKPCKLEPEPRLWVVPGALPQV (SEQ ID NO: 6) (ligand)
peptide: KRRPAKAWSGRRTRLCCHRVPSPNSTNLKGHHVRLCKPCKLEPEPRLWVVPGALPQV
With B1 the “EC50 in in vitro cellular assays (aequorin assay; cAMP in CHO-GPR15 and HEK-GPR15 cell lines)” value [1] was less than 10 nM.

With QKPQLWVVPGALPQV the “EC50 of GPR15 activation, Aequorin assay (luminescence, calcium)” value [1] was roughly 2000 nM and the “EC50 of GPR15 activation, Aequorin assay (luminescence, calcium)” value [2] was roughly 2000 nM.
